According to PMC9482650, “Quantitative fragmentomics allow affinity mapping of interactomes” (Nature Communications, 2022):

T1: RHPN1, Q8TCX5
T1 sequence (Q8TCX5 508-602, limits assumed, looked up): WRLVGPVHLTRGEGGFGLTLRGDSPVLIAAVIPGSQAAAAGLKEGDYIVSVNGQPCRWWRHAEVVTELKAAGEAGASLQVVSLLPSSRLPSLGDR

T2: NHERF3_3, Q5T2W1
T2 sequence (Q5T2W1 238-333, limits assumed, looked up): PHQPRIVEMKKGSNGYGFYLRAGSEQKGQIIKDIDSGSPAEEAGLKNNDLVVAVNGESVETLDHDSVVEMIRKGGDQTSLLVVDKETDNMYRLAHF

T3: ARHGEF11, O15085
T3 sequence (O15085 42-136, limits assumed, looked up): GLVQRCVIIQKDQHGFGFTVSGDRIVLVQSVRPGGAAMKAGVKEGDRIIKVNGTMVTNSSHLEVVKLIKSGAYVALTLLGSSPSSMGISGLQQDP

T4: DLG3_2, Q92796
T4 sequence (Q92796 221-321, limits assumed, looked up): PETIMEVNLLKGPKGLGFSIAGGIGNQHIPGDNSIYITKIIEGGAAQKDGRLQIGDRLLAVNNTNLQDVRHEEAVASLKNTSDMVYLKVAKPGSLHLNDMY

T5: FRMPD1, Q5SYB0
T5 sequence (Q5SYB0 52-145, limits assumed, looked up): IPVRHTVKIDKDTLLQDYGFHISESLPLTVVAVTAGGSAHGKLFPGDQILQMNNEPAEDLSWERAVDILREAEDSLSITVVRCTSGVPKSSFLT

T6: APBA1_1, Q02410
T6 sequence (Q02410 651-752, limits assumed, looked up): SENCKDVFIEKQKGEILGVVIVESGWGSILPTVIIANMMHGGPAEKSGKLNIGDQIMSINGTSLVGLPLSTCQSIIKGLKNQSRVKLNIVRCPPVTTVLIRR

T7: LIN7B, Q9HAP6
T7 sequence (Q9HAP6 88-185, limits assumed, looked up): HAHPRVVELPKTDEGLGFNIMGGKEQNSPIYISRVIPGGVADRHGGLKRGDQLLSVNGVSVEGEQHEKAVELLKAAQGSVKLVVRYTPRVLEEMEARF

T8: HTRA3, P83110
T8 sequence (P83110 354-453, limits assumed, looked up): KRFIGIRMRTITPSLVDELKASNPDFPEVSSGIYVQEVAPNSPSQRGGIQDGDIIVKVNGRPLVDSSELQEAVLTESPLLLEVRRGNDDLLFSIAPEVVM

T9: SNTA1, Q13424
T9 sequence (Q13424 82-180, limits assumed, looked up): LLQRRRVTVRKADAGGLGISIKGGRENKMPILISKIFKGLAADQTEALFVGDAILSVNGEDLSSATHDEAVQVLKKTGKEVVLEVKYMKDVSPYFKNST

B1: JAG1, P78504 (peptide)
chain: QSLNRMEYIV
B2: SLC22A12, Q96S37 (peptide)
chain: GNSVLKSTQF

Experiments:
Experiment in all cases: holdup assay
Set-up in all cases: key: below the threshold = too weak to quantify, mostly under pKd 3.1 to 4
Conditions in all cases: plain residues with an end cap or a label only (N-terminal biotin on a linker: ado-ado)
RHPN1, Q8TCX5 = biological target: T1, RHPN1, Q8TCX5
NHERF3_3, Q5T2W1 = biological target: T2, NHERF3_3, Q5T2W1
MAGI1_2, Q96QZ7 = biological target: MAGI1_2, Q96QZ7
MAST2, Q6P0Q8 = biological target: MAST2, Q6P0Q8
MAGI2_3, Q86UL8 = biological target: MAGI2_3, Q86UL8
ARHGEF11, O15085 = biological target: T3, ARHGEF11, O15085
DLG4_2, P78352 = biological target: DLG4_2, P78352
Inadl_4, Q8NI35 = biological target: Inadl_4, Q8NI35
DLG3_2, Q92796 = biological target: T4, DLG3_2, Q92796
Inadl_8, Q8NI35 = biological target: Inadl_8, Q8NI35
FRMPD1, Q5SYB0 = biological target: T5, FRMPD1, Q5SYB0
APBA1_1, Q02410 = biological target: T6, APBA1_1, Q02410
FRMPD2_3, Q68DX3 = biological target: FRMPD2_3, Q68DX3
PARD3_3, Q8TEW0 = biological target: PARD3_3, Q8TEW0
LNX1_3, Q8TBB1 = biological target: LNX1_3, Q8TBB1
NHERF4_4, Q86UT5 = biological target: NHERF4_4, Q86UT5
FRMPD2_1, Q68DX3 = biological target: FRMPD2_1, Q68DX3
GORASP1, Q9BQQ3 = biological target: GORASP1, Q9BQQ3
MAGI3_2, Q5TCQ9 = biological target: MAGI3_2, Q5TCQ9
Inadl_6, Q8NI35 = biological target: Inadl_6, Q8NI35
LNX1_2, Q8TBB1 = biological target: LNX1_2, Q8TBB1
LIN7B, Q9HAP6 = biological target: T7, LIN7B, Q9HAP6
Inadl_1, Q8NI35 = biological target: Inadl_1, Q8NI35
HTRA3, P83110 = biological target: T8, HTRA3, P83110
Inadl_10, Q8NI35 = biological target: Inadl_10, Q8NI35
GOPC, Q9HD26 = biological target: GOPC, Q9HD26
SNTA1, Q13424 = biological target: T9, SNTA1, Q13424
GIPC2, Q8TF65 = biological target: GIPC2, Q8TF65
Chain of GIPC2, Q8TF65 (Q8TF65 112-203): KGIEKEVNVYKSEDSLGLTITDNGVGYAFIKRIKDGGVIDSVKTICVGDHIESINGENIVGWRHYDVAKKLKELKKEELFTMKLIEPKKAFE

Chain of Inadl_1, Q8NI35 (Q8NI35 113-229): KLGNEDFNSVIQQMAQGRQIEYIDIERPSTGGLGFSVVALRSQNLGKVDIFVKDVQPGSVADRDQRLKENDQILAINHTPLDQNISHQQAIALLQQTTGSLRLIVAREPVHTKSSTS
Chain of LNX1_2, Q8TBB1 (Q8TBB1 371-470): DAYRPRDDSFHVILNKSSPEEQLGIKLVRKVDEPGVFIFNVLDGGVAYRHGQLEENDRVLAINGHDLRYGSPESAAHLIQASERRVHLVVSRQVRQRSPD
Chain of LNX1_3, Q8TBB1 (Q8TBB1 500-596): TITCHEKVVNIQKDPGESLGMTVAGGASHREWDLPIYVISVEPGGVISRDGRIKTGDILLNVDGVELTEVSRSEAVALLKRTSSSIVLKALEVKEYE
Chain of MAGI3_2, Q5TCQ9 (Q5TCQ9 398-503): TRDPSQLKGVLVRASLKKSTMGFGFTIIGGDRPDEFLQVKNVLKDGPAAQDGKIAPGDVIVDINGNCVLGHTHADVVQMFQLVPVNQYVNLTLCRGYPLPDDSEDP
Chain of Inadl_10, Q8NI35 (Q8NI35 1673-1763): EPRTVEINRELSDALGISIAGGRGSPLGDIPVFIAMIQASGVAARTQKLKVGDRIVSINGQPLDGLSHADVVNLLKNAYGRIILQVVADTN
Chain of MAST2, Q6P0Q8 (Q6P0Q8 1099-1202): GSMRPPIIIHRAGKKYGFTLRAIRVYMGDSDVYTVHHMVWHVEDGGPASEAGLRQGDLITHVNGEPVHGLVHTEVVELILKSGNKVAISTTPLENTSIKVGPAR
Chain of NHERF4_4, Q86UT5 (Q86UT5 464-550): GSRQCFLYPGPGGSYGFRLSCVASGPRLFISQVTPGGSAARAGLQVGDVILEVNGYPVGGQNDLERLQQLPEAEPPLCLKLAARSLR
Chain of FRMPD2_1, Q68DX3 (Q68DX3 770-861): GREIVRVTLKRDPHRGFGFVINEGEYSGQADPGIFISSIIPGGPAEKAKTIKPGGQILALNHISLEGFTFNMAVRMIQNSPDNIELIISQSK
Chain of PARD3_3, Q8TEW0 (Q8TEW0 582-685): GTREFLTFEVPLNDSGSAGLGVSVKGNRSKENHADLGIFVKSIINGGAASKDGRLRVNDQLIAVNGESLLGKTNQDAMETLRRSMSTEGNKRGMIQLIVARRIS
Chain of MAGI2_3, Q86UL8 (Q86UL8 600-682): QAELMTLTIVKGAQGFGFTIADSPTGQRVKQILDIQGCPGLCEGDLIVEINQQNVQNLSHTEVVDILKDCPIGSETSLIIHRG
Chain of GORASP1, Q9BQQ3 (Q9BQQ3 1-208): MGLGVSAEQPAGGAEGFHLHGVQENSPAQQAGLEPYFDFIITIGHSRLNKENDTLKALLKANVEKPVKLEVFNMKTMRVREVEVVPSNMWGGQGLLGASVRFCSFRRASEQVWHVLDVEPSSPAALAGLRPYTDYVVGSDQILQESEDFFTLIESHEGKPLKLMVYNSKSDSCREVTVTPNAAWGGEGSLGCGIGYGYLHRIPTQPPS
Chain of FRMPD2_3, Q68DX3 (Q68DX3 1073-1166): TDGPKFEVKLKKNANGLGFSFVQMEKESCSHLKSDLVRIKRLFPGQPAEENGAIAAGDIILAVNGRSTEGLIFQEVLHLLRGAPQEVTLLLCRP
Chain of Inadl_8, Q8NI35 (Q8NI35 1425-1530): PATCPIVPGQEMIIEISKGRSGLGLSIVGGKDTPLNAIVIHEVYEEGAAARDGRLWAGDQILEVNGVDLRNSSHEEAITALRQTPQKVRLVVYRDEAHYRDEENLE
Chain of DLG4_2, P78352 (P78352 155-259): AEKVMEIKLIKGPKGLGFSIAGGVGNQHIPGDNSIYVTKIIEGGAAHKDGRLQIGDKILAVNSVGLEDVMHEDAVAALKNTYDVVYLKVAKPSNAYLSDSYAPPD
Chain of Inadl_6, Q8NI35 (Q8NI35 1058-1167): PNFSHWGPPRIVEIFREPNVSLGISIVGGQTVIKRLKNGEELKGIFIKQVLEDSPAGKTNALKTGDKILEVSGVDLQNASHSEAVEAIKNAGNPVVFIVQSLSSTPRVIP
Chain of MAGI1_2, Q96QZ7 (Q96QZ7 456-580): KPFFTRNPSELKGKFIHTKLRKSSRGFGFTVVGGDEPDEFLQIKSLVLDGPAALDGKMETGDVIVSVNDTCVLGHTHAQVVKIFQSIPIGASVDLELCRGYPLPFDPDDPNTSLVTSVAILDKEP
Chain of Inadl_4, Q8NI35 (Q8NI35 547-651): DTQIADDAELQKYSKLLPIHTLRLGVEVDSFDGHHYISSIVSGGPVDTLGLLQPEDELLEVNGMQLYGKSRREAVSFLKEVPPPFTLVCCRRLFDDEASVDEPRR

| Binder | pKd (RHPN1, Q8TCX5) | pKd (NHERF3_3, Q5T2W1) | pKd (MAGI1_2, Q96QZ7) | pKd (MAST2, Q6P0Q8) | pKd (MAGI2_3, Q86UL8) | pKd (ARHGEF11, O15085) | pKd (DLG4_2, P78352) | pKd (Inadl_4, Q8NI35) | pKd (DLG3_2, Q92796) | pKd (Inadl_8, Q8NI35) | pKd (FRMPD1, Q5SYB0) | pKd (APBA1_1, Q02410) | pKd (FRMPD2_3, Q68DX3) | pKd (PARD3_3, Q8TEW0) | pKd (LNX1_3, Q8TBB1) | pKd (NHERF4_4, Q86UT5) | pKd (FRMPD2_1, Q68DX3) | pKd (GORASP1, Q9BQQ3) | pKd (MAGI3_2, Q5TCQ9) | pKd (Inadl_6, Q8NI35) | also measured |
| --- | --- | --- | --- | --- | --- | --- | --- | --- | --- | --- | --- | --- | --- | --- | --- | --- | --- | --- | --- | --- | --- |
| B1 | below the threshold | below the threshold | below the threshold | 4.07 | below the threshold | below the threshold | 3.78 | below the threshold | 4.45 | below the threshold | below the threshold | below the threshold | 4.36 | 4.37 | 3.96 | below the threshold | 3.89 | 4.71 | 4.73 | below the threshold | pKd (LNX1_2, Q8TBB1): 4.51; pKd (LIN7B, Q9HAP6): below the threshold; pKd (Inadl_1, Q8NI35): 3.69; pKd (HTRA3, P83110): 3.87; pKd (Inadl_10, Q8NI35): below the threshold; pKd (GOPC, Q9HD26): below the threshold; pKd (SNTA1, Q13424): below the threshold; pKd (GIPC2, Q8TF65): below the threshold |
| B2 | below the threshold | below the threshold | below the threshold | 4.77 | 3.61 | below the threshold | below the threshold | below the threshold | 4.21 | below the threshold | below the threshold | below the threshold | below the threshold | below the threshold | below the threshold | below the threshold | below the threshold | below the threshold | below the threshold | below the threshold | pKd (LNX1_2, Q8TBB1): below the threshold; pKd (LIN7B, Q9HAP6): 3.71; pKd (Inadl_1, Q8NI35): below the threshold; pKd (HTRA3, P83110): below the threshold; pKd (Inadl_10, Q8NI35): below the threshold; pKd (GOPC, Q9HD26): below the threshold; pKd (SNTA1, Q13424): below the threshold; pKd (GIPC2, Q8TF65): below the threshold |
